The values that follow come from paper PMC5461267, “Membrane Guanylate Cyclase catalytic Subdomain: Structure and Linkage with Calcium Sensors and Bicarbonate” (Frontiers in Molecular Neuroscience, 2017).

Substrate in the series: Nc1nc2c(ncn2[C@@H]2O[C@H](COP(=O)(O)OP(=O)(O)OP(=O)(O)O)[C@@H](O)[C@H]2O)c(=O)[nH]1
Nature of the series: cyclic GMP radioimmunoassay, COS cell membranes; Hill fit. The format is biochemical, Bos taurus. The following applies: constant Mg2+, GTP 0-3 mM, pH 7.5, 37 °C, half-maximal concentration from Hill equation.

B1: ROS-GC1 (rod outer segment guanylate cyclase type 1), full-length recombinant (Bos taurus; A1013R) (protein)
chain: AVFTVGVLGPWACDPIFARARPDLAARLAASRLNHAAALEGGPRFEVALLPEPCRTPGSLGAVSSALTRVSGLVGPVNPAACRPAELLAQEAGVALVPWGCPGTRAAGTTAPVVTPAADALYALLRAFRWAHVALVTAPQDLWVEAGHALSTALRARGLPVALVTSMEPSDLSGAREALRRVQDGPRVRAVIMVMHSVLLGGEEQRCLLEAAEELGLADGSLVFLPFDTLHYALSPGPDALAVLANSSQLRKAHDAVLTLTRHCPLGGSVRDSLRRAQEHRELPLDLNLQQVSPLFGTIYDSVFLLAGGVARARVAAGGGWVSGAAVARHIRDARVPGFCGALGGAEEPSFVLLDTDATGDQLFATYVLDPTQGFFHSAGTPVHFPKGGRGPGPDPSCWFDPDTICNGGVEPSVVFIGFLLVVGMGLAGAFLAHYCRHRLLHIQMVSGPNKIILTLDDITFLHPHGGNSRKVAQGSRTSLAARSISDVRSIHSQLPDYTNIGLYEGDWVWLKKFPGDRHIAIRPATKMAFSKIRELRHENVALYLGLFLAGGAGGPAAPGEGVLAVVSEHCARGSLQDLLAQRDIKLDWMFKSSLLLDLIKGIRYLHHRGVAHGRLKSRNCVVDGRFVLKVTDHGHGRLLEAQRVLPEPPSAEDQLWTAPELLRDPVLERRGTLAGDVFSLGIIMQEVVCRSAPYAMLELTPEEVVKRVQSPPPLCRPSVSIDQAPMECIQLMKQCWAEQPELRPSMDRTFELFKSINKGRKMNIIDSMLRMLEQYSSNLEDLIRERTEELELEKQKTDRLLTQMLPPSVAEALKMGTPVEPEYFEEVTLYFSDIVGFTTISAMSEPIEVVDLLNDLYTLFDAIIGSHDVYKVETIGDAYMVASGLPQRNGHRHAAEIANMALDILSAVGTFRMRHMPEVPVRIRIGLHSGPCVAGVVGLTMPRYCLFGDTVNTASRMESTGLPYRIHVNRSTVQILSALNEGFLTEVRGRTELKGKGAEETYWLVGRRGFNKPIPKPPDLQPGASNHGISLHEIPPDRRQKLEKARPGQFSGK
notes: full-length wild-type cDNA expressed in COS-7 cells; membrane fraction assayed; homodimer
As for B1, the Michaelis constant (Km) stood at 450 ± 20 µM.

B2: ROS-GC1 (rod outer segment guanylate cyclase type 1), full-length recombinant (Bos taurus; A1013R/D934A) (protein)
chain: AVFTVGVLGPWACDPIFARARPDLAARLAASRLNHAAALEGGPRFEVALLPEPCRTPGSLGAVSSALTRVSGLVGPVNPAACRPAELLAQEAGVALVPWGCPGTRAAGTTAPVVTPAADALYALLRAFRWAHVALVTAPQDLWVEAGHALSTALRARGLPVALVTSMEPSDLSGAREALRRVQDGPRVRAVIMVMHSVLLGGEEQRCLLEAAEELGLADGSLVFLPFDTLHYALSPGPDALAVLANSSQLRKAHDAVLTLTRHCPLGGSVRDSLRRAQEHRELPLDLNLQQVSPLFGTIYDSVFLLAGGVARARVAAGGGWVSGAAVARHIRDARVPGFCGALGGAEEPSFVLLDTDATGDQLFATYVLDPTQGFFHSAGTPVHFPKGGRGPGPDPSCWFDPDTICNGGVEPSVVFIGFLLVVGMGLAGAFLAHYCRHRLLHIQMVSGPNKIILTLDDITFLHPHGGNSRKVAQGSRTSLAARSISDVRSIHSQLPDYTNIGLYEGDWVWLKKFPGDRHIAIRPATKMAFSKIRELRHENVALYLGLFLAGGAGGPAAPGEGVLAVVSEHCARGSLQDLLAQRDIKLDWMFKSSLLLDLIKGIRYLHHRGVAHGRLKSRNCVVDGRFVLKVTDHGHGRLLEAQRVLPEPPSAEDQLWTAPELLRDPVLERRGTLAGDVFSLGIIMQEVVCRSAPYAMLELTPEEVVKRVQSPPPLCRPSVSIDQAPMECIQLMKQCWAEQPELRPSMDRTFELFKSINKGRKMNIIDSMLRMLEQYSSNLEDLIRERTEELELEKQKTDRLLTQMLPPSVAEALKMGTPVEPEYFEEVTLYFSDIVGFTTISAMSEPIEVVDLLNDLYTLFDAIIGSHDVYKVETIGAAYMVASGLPQRNGHRHAAEIANMALDILSAVGTFRMRHMPEVPVRIRIGLHSGPCVAGVVGLTMPRYCLFGDTVNTASRMESTGLPYRIHVNRSTVQILSALNEGFLTEVRGRTELKGKGAEETYWLVGRRGFNKPIPKPPDLQPGASNHGISLHEIPPDRRQKLEKARPGQFSGK
notes: as for B1
Consider B2, for which the Km amounted to 480 ± 40 µM.

B3: ROS-GC1 (rod outer segment guanylate cyclase type 1), full-length recombinant (Bos taurus; A1013R/R981A) (protein)
chain: AVFTVGVLGPWACDPIFARARPDLAARLAASRLNHAAALEGGPRFEVALLPEPCRTPGSLGAVSSALTRVSGLVGPVNPAACRPAELLAQEAGVALVPWGCPGTRAAGTTAPVVTPAADALYALLRAFRWAHVALVTAPQDLWVEAGHALSTALRARGLPVALVTSMEPSDLSGAREALRRVQDGPRVRAVIMVMHSVLLGGEEQRCLLEAAEELGLADGSLVFLPFDTLHYALSPGPDALAVLANSSQLRKAHDAVLTLTRHCPLGGSVRDSLRRAQEHRELPLDLNLQQVSPLFGTIYDSVFLLAGGVARARVAAGGGWVSGAAVARHIRDARVPGFCGALGGAEEPSFVLLDTDATGDQLFATYVLDPTQGFFHSAGTPVHFPKGGRGPGPDPSCWFDPDTICNGGVEPSVVFIGFLLVVGMGLAGAFLAHYCRHRLLHIQMVSGPNKIILTLDDITFLHPHGGNSRKVAQGSRTSLAARSISDVRSIHSQLPDYTNIGLYEGDWVWLKKFPGDRHIAIRPATKMAFSKIRELRHENVALYLGLFLAGGAGGPAAPGEGVLAVVSEHCARGSLQDLLAQRDIKLDWMFKSSLLLDLIKGIRYLHHRGVAHGRLKSRNCVVDGRFVLKVTDHGHGRLLEAQRVLPEPPSAEDQLWTAPELLRDPVLERRGTLAGDVFSLGIIMQEVVCRSAPYAMLELTPEEVVKRVQSPPPLCRPSVSIDQAPMECIQLMKQCWAEQPELRPSMDRTFELFKSINKGRKMNIIDSMLRMLEQYSSNLEDLIRERTEELELEKQKTDRLLTQMLPPSVAEALKMGTPVEPEYFEEVTLYFSDIVGFTTISAMSEPIEVVDLLNDLYTLFDAIIGSHDVYKVETIGDAYMVASGLPQRNGHRHAAEIANMALDILSAVGTFRMRHMPEVPVRIAIGLHSGPCVAGVVGLTMPRYCLFGDTVNTASRMESTGLPYRIHVNRSTVQILSALNEGFLTEVRGRTELKGKGAEETYWLVGRRGFNKPIPKPPDLQPGASNHGISLHEIPPDRRQKLEKARPGQFSGK
notes: as for B1
B3: the Km is 520 ± 30 µM.

B4: ROS-GC1 (rod outer segment guanylate cyclase type 1), full-length recombinant (Bos taurus; A1013R/D890A) (protein)
chain: AVFTVGVLGPWACDPIFARARPDLAARLAASRLNHAAALEGGPRFEVALLPEPCRTPGSLGAVSSALTRVSGLVGPVNPAACRPAELLAQEAGVALVPWGCPGTRAAGTTAPVVTPAADALYALLRAFRWAHVALVTAPQDLWVEAGHALSTALRARGLPVALVTSMEPSDLSGAREALRRVQDGPRVRAVIMVMHSVLLGGEEQRCLLEAAEELGLADGSLVFLPFDTLHYALSPGPDALAVLANSSQLRKAHDAVLTLTRHCPLGGSVRDSLRRAQEHRELPLDLNLQQVSPLFGTIYDSVFLLAGGVARARVAAGGGWVSGAAVARHIRDARVPGFCGALGGAEEPSFVLLDTDATGDQLFATYVLDPTQGFFHSAGTPVHFPKGGRGPGPDPSCWFDPDTICNGGVEPSVVFIGFLLVVGMGLAGAFLAHYCRHRLLHIQMVSGPNKIILTLDDITFLHPHGGNSRKVAQGSRTSLAARSISDVRSIHSQLPDYTNIGLYEGDWVWLKKFPGDRHIAIRPATKMAFSKIRELRHENVALYLGLFLAGGAGGPAAPGEGVLAVVSEHCARGSLQDLLAQRDIKLDWMFKSSLLLDLIKGIRYLHHRGVAHGRLKSRNCVVDGRFVLKVTDHGHGRLLEAQRVLPEPPSAEDQLWTAPELLRDPVLERRGTLAGDVFSLGIIMQEVVCRSAPYAMLELTPEEVVKRVQSPPPLCRPSVSIDQAPMECIQLMKQCWAEQPELRPSMDRTFELFKSINKGRKMNIIDSMLRMLEQYSSNLEDLIRERTEELELEKQKTDRLLTQMLPPSVAEALKMGTPVEPEYFEEVTLYFSAIVGFTTISAMSEPIEVVDLLNDLYTLFDAIIGSHDVYKVETIGDAYMVASGLPQRNGHRHAAEIANMALDILSAVGTFRMRHMPEVPVRIRIGLHSGPCVAGVVGLTMPRYCLFGDTVNTASRMESTGLPYRIHVNRSTVQILSALNEGFLTEVRGRTELKGKGAEETYWLVGRRGFNKPIPKPPDLQPGASNHGISLHEIPPDRRQKLEKARPGQFSGK
notes: as for B1
Take B4: the Km was 560 ± 30 µM.

B5: ROS-GC1 (rod outer segment guanylate cyclase type 1), full-length recombinant (Bos taurus; A1013R/E930A) (protein)
chain: AVFTVGVLGPWACDPIFARARPDLAARLAASRLNHAAALEGGPRFEVALLPEPCRTPGSLGAVSSALTRVSGLVGPVNPAACRPAELLAQEAGVALVPWGCPGTRAAGTTAPVVTPAADALYALLRAFRWAHVALVTAPQDLWVEAGHALSTALRARGLPVALVTSMEPSDLSGAREALRRVQDGPRVRAVIMVMHSVLLGGEEQRCLLEAAEELGLADGSLVFLPFDTLHYALSPGPDALAVLANSSQLRKAHDAVLTLTRHCPLGGSVRDSLRRAQEHRELPLDLNLQQVSPLFGTIYDSVFLLAGGVARARVAAGGGWVSGAAVARHIRDARVPGFCGALGGAEEPSFVLLDTDATGDQLFATYVLDPTQGFFHSAGTPVHFPKGGRGPGPDPSCWFDPDTICNGGVEPSVVFIGFLLVVGMGLAGAFLAHYCRHRLLHIQMVSGPNKIILTLDDITFLHPHGGNSRKVAQGSRTSLAARSISDVRSIHSQLPDYTNIGLYEGDWVWLKKFPGDRHIAIRPATKMAFSKIRELRHENVALYLGLFLAGGAGGPAAPGEGVLAVVSEHCARGSLQDLLAQRDIKLDWMFKSSLLLDLIKGIRYLHHRGVAHGRLKSRNCVVDGRFVLKVTDHGHGRLLEAQRVLPEPPSAEDQLWTAPELLRDPVLERRGTLAGDVFSLGIIMQEVVCRSAPYAMLELTPEEVVKRVQSPPPLCRPSVSIDQAPMECIQLMKQCWAEQPELRPSMDRTFELFKSINKGRKMNIIDSMLRMLEQYSSNLEDLIRERTEELELEKQKTDRLLTQMLPPSVAEALKMGTPVEPEYFEEVTLYFSDIVGFTTISAMSEPIEVVDLLNDLYTLFDAIIGSHDVYKVATIGDAYMVASGLPQRNGHRHAAEIANMALDILSAVGTFRMRHMPEVPVRIRIGLHSGPCVAGVVGLTMPRYCLFGDTVNTASRMESTGLPYRIHVNRSTVQILSALNEGFLTEVRGRTELKGKGAEETYWLVGRRGFNKPIPKPPDLQPGASNHGISLHEIPPDRRQKLEKARPGQFSGK
notes: as for B1
For B5, the Km turned out to be 530 ± 30 µM.

As a reminder, the Km is the concentration of substrate that gives half-maximal velocity.
